From patent US20230265151A1, “GIP/GLP1 CO-AGONIST COMPOUNDS” (priority 2020, published 2023)

T1: human GIP receptor (human, UniProt P48546 22-466)
T1 sequence (looked up): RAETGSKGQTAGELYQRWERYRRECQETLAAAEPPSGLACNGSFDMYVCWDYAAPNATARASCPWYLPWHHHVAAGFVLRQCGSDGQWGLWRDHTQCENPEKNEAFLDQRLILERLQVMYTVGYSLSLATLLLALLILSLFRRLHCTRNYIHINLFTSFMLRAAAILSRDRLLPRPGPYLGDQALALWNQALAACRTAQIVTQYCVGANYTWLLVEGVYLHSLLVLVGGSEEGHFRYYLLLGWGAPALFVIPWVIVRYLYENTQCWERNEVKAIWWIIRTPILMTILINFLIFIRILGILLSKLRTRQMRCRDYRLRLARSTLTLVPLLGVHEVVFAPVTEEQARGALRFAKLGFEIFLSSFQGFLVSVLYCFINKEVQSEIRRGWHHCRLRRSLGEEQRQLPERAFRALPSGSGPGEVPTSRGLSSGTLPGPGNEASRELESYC


Key:
Experiment in all cases: cell-based or functional assay
human GIP receptor = target: T1, human GIP receptor
human GLP-1 receptor = human GLP-1 receptor (human, UniProt P43220 24-463)
human glucagon receptor = human glucagon receptor (human, UniProt P47871 26-477)

Binder | cAMP EC50 (1.0% HSA) (human GIP receptor) | cAMP Emax (1.0% HSA) (human GIP receptor) | cAMP EC50 (1.0% HSA) (human GLP-1 receptor) | cAMP Emax (1.0% HSA) (human GLP-1 receptor) | cAMP EC50 (1.0% HSA) (human glucagon receptor)
YXEGTXTSDXSIXLDXKAQXEXIXXLIEGGKSSGAPPPS (Aib2, αMeF(2F)6, 4Pal10, αMeL13, Orn16, Aib20, 2ClPhe22, D-Glu24, αMeY25; acylated K17, K31 (groups as in name); C-terminal amide) | 0.744 nM | 92.8% | 36.9 nM | 89.7% | > 9950 nM
YXEGTXTSDXSIXLDXKAQXEXIXXLIEGGKSSGAPPPS (Aib2, αMeF(2F)6, 4Pal10, αMeL13, Orn16, Aib20, 3,5FPhe22, D-Glu24, αMeY25; acylated K17, K31 (groups as in name); C-terminal amide) | 1.05 nM | – | 25.5 nM | 104% | > 9950 nM
YXEGTXTSDXSIXLDXKAQXEXIXXLIEGGKSSGAPPPS (Aib2, αMeF(2F)6, 4Pal10, αMeL13, Orn16, Aib20, 2FPhe22, D-Glu24, αMeY25; acylated K17, K31 (groups as in name); C-terminal amide) | 0.771 nM | – | 47.6 nM | 98% | > 9950 nM
YXEGTXTSDXSIXLDXKAQXEFIGXLIEGGKSSGAPPPS (Aib2, αMeF(2F)6, 4Pal10, αMeL13, Orn16, Aib20, αMeY25; acylated K17, K31 (groups as in name); C-terminal amide) | 0.52 nM | 95.9% | 12.3 nM | 95.8% | > 9950 nM
YXEGTXTSDXSIXLDXKAQXEXIXXLIEGGKSSGAPPPS (Aib2, αMeF(2F)6, 4Pal10, αMeL13, Orn16, Aib20, αMeF(2F)22, D-Glu24, αMeY25; acylated K17, K31 (groups as in name); C-terminal amide) | 0.591 nM | 80.3% | 209 nM | – | > 9950 nM
YXEGTXTSDXSIXLDXKAQXEXIXXLIEGGKSSGAPPPS (Aib2, αMeF(2F)6, 4Pal10, αMeL13, Orn16, Aib20, 3FPhe22, D-Glu24, αMeY25; acylated K17, K31 (groups as in name); C-terminal amide) | 0.986 nM | 90.5% | 27 nM | 87.8% | > 9950 nM
YXEGTXTSDXSIXLDXKAQXEXIXXLIEGGKSSGAPPPS (Aib2, αMeF(2F)6, 4Pal10, αMeL13, Orn16, Aib20, 1Nal22, D-Glu24, αMeY25; acylated K17, K31 (groups as in name); C-terminal amide) | 0.787 nM | 90.6% | 27 nM | 93% | > 9950 nM
YXEGTXTSDVSIXLDXKAQXEXIXXLIEGGKSSGAPPPS (Aib2, αMeF(2F)6, αMeL13, Orn16, Aib20, αMeF22, D-Glu24, αMeY25; acylated K17, K31 (groups as in name); C-terminal amide) | 2.64 nM | 102% | 76.8 nM | 108% | > 9950 nM
YXEGTXTSDXGIXLDXKAQXEFIXXLIEGGKSSGAPPPS (Aib2, αMeF(2F)6, 4Pal10, αMeL13, Orn16, Aib20, D-Glu24, αMeY25; acylated K17, K31 (groups as in name); C-terminal amide) | 2.61 nM | 98.3% | 402 nM | 123% | > 9950 nM
YXEGTXTSDXSIXLDXKAQXEXIXXLIEGGKSSGAPPPS (Aib2, αMeF(2F)6, 4Pal10, αMeL13, Orn16, Aib20, 3ClPhe22, D-Glu24, αMeY25; acylated K17, K31 (groups as in name); C-terminal amide) | 1.27 nM | – | 34 nM | 85.8% | > 9950 nM
